# Reference: the supplement of paper PMC10567573
# B1: ANKRD40 (parent)
# chain: SLRENDFIEIELDRQELTYQELLR
# Variants of: B1
# Experiment: protein stability index of a GFP-peptide fusion (GPS, HEK-293T) (PSI 1-6); higher = more stable
# Details: c terminus: a fixed tail appended
# 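Note: lentivirally expressed fusions sorted by FACS into six bins by GFP to DsRed ratio, PSI derived from sequencing read proportions per bin multiplied by bin number.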
row,Variant,protein stability index
1,SLRENDFIEIECDRQELTYQELLR [L12C],3.88
2,SLRENDFIEIELDRQELTYQRLLR [E21R],2.62
3,SLRENDFIEIELDRQELTYQMLLR [E21M],1.92
4,SLRENDFIEIELDRQELTYQFLLR [E21F],1.69
5,SLRENSFIEIELDRQELTYQELLR [D6S],2.55
6,SLRENPFIEIELDRQELTYQELLR [D6P],2.97
7,SLRENKFIEIELDRQELTYQELLR [D6K],2.64
8,SLRENVFIEIELDRQELTYQELLR [D6V],1.64
9,SLRENAFIEIELDRQELTYQELLR [D6A],2.42
10,SLRENMFIEIELDRQELTYQELLR [D6M],1.66
11,SLRENLFIEIELDRQELTYQELLR [D6L],2.15
12,SLRENDYIEIELDRQELTYQELLR [F7Y],3.54
13,SLRENDLIEIELDRQELTYQELLR [F7L],3.79
14,SLRENDSIEIELDRQELTYQELLR [F7S],4.03
15,SLRENDRIEIELDRQELTYQELLR [F7R],3.69
16,SLRENDPIEIELDRQELTYQELLR [F7P],4.05
17,SLRENDFIEIELDRQQLTYQELLR [E16Q],3.18
18,SLRENDFIEIELDRQLLTYQELLR [E16L],2.99
19,SLRENDFIEIELDRQILTYQELLR [E16I],2.47
20,SLRENDFIEIELDRQEMTYQELLR [L17M],2.92
21,SLRENDFIEIELDRQEITYQELLR [L17I],3.19
22,SLRENDFIEIELDRQEQTYQELLR [L17Q],3.57
23,SLRENDFIEIELDRQERTYQELLR [L17R],3.25
24,SLRENDFIEIELDRQEFTYQELLR [L17F],2.61

row,Variant,protein stability index
1,SLRENDFSEIELDRQELTYQELLR [I8S],3.34
2,SLRENDFWEIELDRQELTYQELLR [I8W],3.26
3,SLRENDFPEIELDRQELTYQELLR [I8P],3.89
4,SLRENDFGEIELDRQELTYQELLR [I8G],3.88
5,SLRENDFDEIELDRQELTYQELLR [I8D],4.56
6,SLRENDFCEIELDRQELTYQELLR [I8C],3.57
7,SLRENDFIEIELDRQELTYQELCR [L23C],2.97
8,SLRENDFIEIELDRQELTYQELVR [L23V],3.53
9,SLRENDFIEIELDRQELTYQELYR [L23Y],3.43
10,SLRENDFIEIELDRQELTYQELNR [L23N],4.05
11,SLRENDFIMIELDRQELTYQELLR [E9M],2.14
12,SLRENDFINIELDRQELTYQELLR [E9N],2.82
13,SLRENDFITIELDRQELTYQELLR [E9T],2
14,SLRENDFIGIELDRQELTYQELLR [E9G],3.33
15,SLRENDFIEIELDRKELTYQELLR [Q15K],3.29
16,SLRENDFIEIELDREELTYQELLR [Q15E],3.28
17,SLRENDFIEIELDRLELTYQELLR [Q15L],2.78
18,SLRENDFIEIELDRQELTYDELLR [Q20D],3.7
19,SLRENDFIEIELDRQELTYCELLR [Q20C],2.16
20,SLRENDFIEIELDRQELTYSELLR [Q20S],3.3
21,SLRENDFIEIELDRQELTYKELLR [Q20K],3.2
22,SLRENDFIEIELDRQELTYLELLR [Q20L],2.04
23,SLRENDFIEIELDRQELTYQEELR [L22E],3.66
24,SLRENDFIEIELDRQELTYQEGLR [L22G],3.57

row,Variant,protein stability index
1,SLRENDFIEIELDRQELTYQEMLR [L22M],3.34
2,SLRENDFIEIELDRQELTYQEILR [L22I],2.53
3,SLRENDFIEIELDRQELTYQEWLR [L22W],2.86
4,SLRENDFIEIELDRQELTYQEVLR [L22V],2.77
5,SLRENDFIEIELDRQELTYQEDLR [L22D],4.54
6,SLRENDFIEIELDCQELTYQELLR [R14C],2.09
7,SLRENDFIEIELDFQELTYQELLR [R14F],1.44
8,SCRENDFIEIELDRQELTYQELLR [L2C],2.99
9,SQRENDFIEIELDRQELTYQELLR [L2Q],3.48
10,SIRENDFIEIELDRQELTYQELLR [L2I],2.66
11,SDRENDFIEIELDRQELTYQELLR [L2D],3.6
12,SKRENDFIEIELDRQELTYQELLR [L2K],3.01
13,SARENDFIEIELDRQELTYQELLR [L2A],3.91
14,SLRENDFIEIELDRQELCYQELLR [T18C],2.46
15,SLRENDFIERELDRQELTYQELLR [I10R],3.53
16,SLRENDFIEGELDRQELTYQELLR [I10G],3.55
17,SLRENDFIEWELDRQELTYQELLR [I10W],3.19
18,SLRENDFIEIELDRQELTSQELLR [Y19S],3.79
19,SLRENDFIEIELDRQELTCQELLR [Y19C],2.93
20,SLRENDFIEIELDRQELTQQELLR [Y19Q],4.47
21,SLRENDFIEIELDRQELTTQELLR [Y19T],3.5
22,SLRENDFIEIELDRQELTIQELLR [Y19I],2.73
23,SLRENDFIEIELDRQELTYQELLK [R24K],3.12
24,SLRENDFIEIELDRQELTYQELLQ [R24Q],3.04

row,Variant,protein stability index
1,GLRENDFIEIELDRQELTYQELLR [S1G],2.77
2,WLRENDFIEIELDRQELTYQELLR [S1W],2.26
3,VLRENDFIEIELDRQELTYQELLR [S1V],3.17
4,HLRENDFIEIELDRQELTYQELLR [S1H],3.26
5,MLRENDFIEIELDRQELTYQELLR [S1M],2.66
6,SLRETDFIEIELDRQELTYQELLR [N5T],3.09
7,SLREKDFIEIELDRQELTYQELLR [N5K],2.88
8,SLRENDFIEIELSRQELTYQELLR [D13S],2.54
9,SLRENDFIEIELTRQELTYQELLR [D13T],2.15
10,SLRENDFIEIELGRQELTYQELLR [D13G],2.77
11,SLRDNDFIEIELDRQELTYQELLR [E4D],3.25
12,SLRYNDFIEIELDRQELTYQELLR [E4Y],2.17
13,SLRINDFIEIELDRQELTYQELLR [E4I],2.02
14,SLRVNDFIEIELDRQELTYQELLR [E4V],1.83
15,SLEENDFIEIELDRQELTYQELLR [R3E],2.85
16,SLLENDFIEIELDRQELTYQELLR [R3L],2.29
17,SLRENDFIEIQLDRQELTYQELLR [E11Q],2.74
18,SLRENDFIEIYLDRQELTYQELLR [E11Y],2.16
19,SLRENDFIEIVLDRQELTYQELLR [E11V],2.29
20,SLRENDFIEITLDRQELTYQELLR [E11T],2.35
21,SLRENDFIEIALDRQELTYQELLR [E11A],3.15
22,SLRENDFIEISLDRQELTYQELLR [E11S],2.45
